# Patent US20130189759, “MEGANUCLEASES VARIANTS CLEAVING A DNA TARGET SEQUENCE IN THE NANOG GENE AND USES THEREOF” (Cellectis, published 2013)
# Positions count from the first letter of the chain named.
# T1: SCOH-NANOG2 pCLS4416 (single-chain I-CreI variant)
# T1 chain: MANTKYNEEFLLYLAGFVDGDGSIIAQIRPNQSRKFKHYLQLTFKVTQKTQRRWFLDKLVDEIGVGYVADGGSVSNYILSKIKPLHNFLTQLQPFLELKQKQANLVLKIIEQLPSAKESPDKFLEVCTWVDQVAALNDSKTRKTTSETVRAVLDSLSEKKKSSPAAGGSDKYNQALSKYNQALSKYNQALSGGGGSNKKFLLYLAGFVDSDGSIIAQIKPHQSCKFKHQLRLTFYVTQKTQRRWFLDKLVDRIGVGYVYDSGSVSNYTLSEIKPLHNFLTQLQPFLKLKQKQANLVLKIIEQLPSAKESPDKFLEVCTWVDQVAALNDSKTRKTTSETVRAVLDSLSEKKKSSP
# T2: SCOH-NANOG2 pCLS4418 (single-chain I-CreI variant)
# T2 chain: T1 chain with F55I, V65A, K81E, T148A
# T3: SCOH-NANOG2 pCLS4415 (single-chain I-CreI variant)
# T3 chain: T1 chain with K81E
# B1: NANOG2 (NANOG2.1) target (dsDNA)
# DNA 1: CCAACATCCTGAACCTCAGCTACA
# DNA 2: TGTAGCTGAGGTTCAGGATGTTGG
# Experiments:
# Assay in all cases: cell_activity; 293H endogenous locus, 5 ug plasmid
# Settings in all cases: tags: RM2 linker between monomers
# [1] = molecular target: T1, SCOH-NANOG2 pCLS4416 (single-chain …)
# Protocol: (§1) Single Chain I-CreI variants targeting respectively NANOG2 and NANOG4 targets were cloned in the pCLS1853 plasmid. The resulting plasmids, respectively pCLS4415, pCLS4416, pCLS4417, pCLS4418, pCLS4421 and pCLS4422 were used for this experiment. The day of […], cells from the human embryonic kidney cell line, 293-H (Invitrogen) were seeded in a 10 cm dish at density of 1×10⁶ cells/dish. The following day, cells were transfected with 10 μg of total DNA corresponding to the combination of an empty plasmid with a meganuclease-expressing plasmid using lipofectamine (Invitrogen). Plasmid ratio (empty/meganuclease plasmid) used were 10 μg/0 μg, 9 μg/1 μg, 5 μg/5 μg 0 μg/10 μg. 48 hours after transfection, cells were collected and diluted (dilution 1/20) in fresh culture medium. After 7 days of culture, cells were collected and genomic DNA extracted. 300 ng of genomic DNA were used to amplify the endogenous locus surrounding the meganuclease cleavage site by PCR amplification.
# (§2) PCR amplification was performed to obtain a fragment flanked by specific adaptator sequences (SEQ ID NO 63; 5′-[…]-3′ and SEQ ID NO 64; 5′-[…]-3′) provided by the company offering sequencing service (GATC Biotech AG, Germany) on the 454 sequencing system (454 Life Sciences). An average of 18,000 sequences was obtained from pools of 2 amplicons (500 ng each). After sequencing, different samples were identified based on barcode sequences introduced in the first of the above adaptators.
# (§3) Sequences were then analyzed for the presence of insertions or deletions events (InDel) in the cleavage site of each NANOG target.
# [2] = molecular target: T2, SCOH-NANOG2 pCLS4418 (single-chain …)
# Protocol: as §1, §2, §3
# [3] = molecular target: T3, SCOH-NANOG2 pCLS4415 (single-chain …)
# Protocol: as §1, §2, §3
binder,measurement,setting,value
B1,activity,[1],0.222 % InDel
same,activity,[2],0.317 % InDel
same,activity,[3],0.276 % InDel
